Data published in paper PMC3101288.

Molecular target: HlmI (thioredoxin-disulfide oxidoreductase-like dithiol oxidase of the holomycin gene cluster) (Streptomyces clavuligerus)
Experiment: SEC

Substance “HlmI (thioredoxin-disulfide oxidoreductase-like dithiol oxidase of the holomycin gene cluster) (enzyme)” has a stoichiometry N of 2.
